According to US20240366814A1 (University of California, published 2024):

Columns and labels:
[1] = molecular target: T1, CUB domain-containing protein 1 (CDCP1), human, on the surface of human bladder cancer cell lines (human, UniProt Q9H5V8 30-836); experiment: flow cytometry on human bladder cancer cell lines (5637, HT-1197, HT-1397, UMUC9, 639V, T24, 253JBV, UMUC3, TCCSUP)
T1 construct: whole, on cells; Endogenous CDCP1 on UMUC3, TCC SUP, 5637, UMUC9 and other bladder cancer lines; also called SIMA135; CD318
T1 sequence (looked up): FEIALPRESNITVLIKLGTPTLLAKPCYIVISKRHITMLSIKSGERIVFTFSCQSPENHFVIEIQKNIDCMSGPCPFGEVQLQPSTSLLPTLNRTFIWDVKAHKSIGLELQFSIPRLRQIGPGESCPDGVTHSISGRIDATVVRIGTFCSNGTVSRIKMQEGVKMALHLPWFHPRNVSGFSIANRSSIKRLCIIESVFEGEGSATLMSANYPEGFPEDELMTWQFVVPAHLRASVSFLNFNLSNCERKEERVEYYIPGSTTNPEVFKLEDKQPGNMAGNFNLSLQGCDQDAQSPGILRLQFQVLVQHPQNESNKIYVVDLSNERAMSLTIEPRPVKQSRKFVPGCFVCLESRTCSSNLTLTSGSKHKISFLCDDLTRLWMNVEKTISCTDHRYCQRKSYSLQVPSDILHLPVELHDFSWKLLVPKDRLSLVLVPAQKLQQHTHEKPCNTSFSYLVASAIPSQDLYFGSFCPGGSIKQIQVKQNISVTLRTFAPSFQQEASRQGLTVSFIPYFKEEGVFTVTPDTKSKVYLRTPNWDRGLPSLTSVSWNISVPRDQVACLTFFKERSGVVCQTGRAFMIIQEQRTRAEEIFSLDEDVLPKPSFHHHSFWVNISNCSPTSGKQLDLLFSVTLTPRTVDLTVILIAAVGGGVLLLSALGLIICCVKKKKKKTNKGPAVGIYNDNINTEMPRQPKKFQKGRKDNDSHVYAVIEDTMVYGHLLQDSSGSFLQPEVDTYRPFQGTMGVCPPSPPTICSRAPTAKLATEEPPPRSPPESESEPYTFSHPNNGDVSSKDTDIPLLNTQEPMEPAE
Protocol: Flow Cytometry. Cells were trypsinized and washed, and then incubated with either a PE-anti-CDCP1 antibody (Biolegend #324017, 1:100) or 4A06 for 30 minutes on ice. For cells incubated with unlabeled 4A06, after the 30 min incubation, the cells were washed with PBS multiple times and placed in a fluorophore conjugated secondary antibody solution for 30 minutes on ice (1:1000, 109-546-097, Jackson ImmunoResearch). Cells were collected and washed before being placed in PBS and passed through a cell strainer. Cells were analyzed using an Attune NxT Flow and data were analyzed using FlowJo software.
(§1) CDCP1 protein expression in human bladder cancer cell lines representing luminal (5637, HT-1197, HT-1397, UMUC9) and basal subtypes (639V, T24, 253JBV, UMUC3, TCCSUP) was evaluated. […] UMUC3 and TCC SUP had the highest expression of CDCP1, while UMUC9 and 253 JBV had the lowest relative level. Cell surface receptor numbers were further quantified using ¹²⁵I-labeled 4A06 antibody.

[2] = molecular target: T1, CUB domain-containing protein 1 …; experiment: saturation binding of 125I-4A06 on UMUC3 cells
Protocol: (§2) Saturation binding assays. ¹²⁵I-4A06 was prepared as previously reported (Moroz et al., Clin Cancer Res, 6(14):3608-3615, 2020). The final yield of purified ¹²⁵I-4A06 was ˜60% (specific activity ˜1 μCi/μg) and purity was >99%. UMUC3, TCC SUP, 5637, and UMUC9 cells (0.6×10⁶ cell/well) were seeded on 12-well plates using DMEM (10% FBS). The cells were washed with PBS for the saturation binding assay. Total binding of ¹²⁵I-4A06 was determined by adding it to cell suspensions at seven concentrations from 0.025 nM to 10 nM. Non-specific binding was determined by adding 1000× cold 4A06 to ¹²⁵I-4A06/cell mixtures at three concentrations. Cells were incubated with ˜0.5 μCi ¹²⁵I-4A06 at room temperature for 1 hr, washed with PBS, and lysed by adding 1.0 M NaOH. The bound and unbound radioactive fractions were collected and measured on a Hidex Gamma counter (Turku, FI). Bmax was calculated using Prism v8.0.
as §1

[3] = molecular target: T1, CUB domain-containing protein 1 …; experiment: saturation binding of 125I-4A06 on UMUC9 cells
Protocol: as §2, §1

[4] = molecular target: T1, CUB domain-containing protein 1 …; experiment: saturation binding of 125I-4A06 on TCC SUP cells
Protocol: as §2, §1

[5] = molecular target: T1, CUB domain-containing protein 1 …; experiment: saturation binding of 125I-4A06 on 5637 cells
Protocol: as §2, §1

B1: recombinant monoclonal antibody 4A06 (IgG1 format) (antibody, V domains shown)
VH: EVQLVESGGGLVQPGGSLRLSCAASGFNLSYYYIHWVRQAPGKGLEWVASIYSSSSYTSYADSVKGRFTISADTSKNTAYLQMNSLRAEDTAVYYCARAYYGFDYWGQGTLVTVSS
VL: DIQMTQSPSSLSASVGDRVTITCRASQSVSSAVAWYQQKPGKAPKLLIYSASSLYSGVPSRFSGSRSGTDFTLTISSLQPEDFATYYCQQSYYYYPITFGQGTKVEIK
notes: Used unlabelled in flow cytometry, detected with a fluorophore-conjugated secondary antibody; also called CDCP1-002; 4A06 antibody
[1]
  binding result: binds

B2: 125I-labeled 4A06 antibody (antibody, V domains shown)
VH: B1 VH
VL: B1 VL
modifications: radioiodinated with iodine-125; labelled residues not stated
notes: specific activity ~1 uCi/ug, purity >99%); also called ^125I-4A06; 125I-4A06
[2]
  Kd: 1840 pM
[3]
  Kd: 181 pM
[4]
  Kd: 583 pM
[5]
  Kd: 284 pM
